Columns and labels:
[1] = target: T1, WT hDicer (Homo sapiens, UniProt Q9UPY3, K70A); assay: EMSA with radiolabelled ATP; conditions: labelled compound ([γ-32P]-ATP, 2 nM); 150 mM NaCl, 50 mM Tris-HCl pH 7.5, 2.5 mM MgCl2, 4 °C, no RNA; Walker A mutant; weak binding, Kd could not be determined
T1 construct: gene DICER1; full-length, 1922 aa, ~220 kDa; expressed in human 293T NoDice cells and purified; K70A variant from Addgene plasmid 41589

[2] = target: T2, HEL (Homo sapiens, UniProt Q9UPY3); assay: ATP hydrolysis, PAGE of released […]; type: biochemical; conditions: labelled compound ([γ-32P]-ATP, 2 nM), HEL 2 nM (low turnover); 150 mM NaCl, 50 mM Tris-HCl pH 7.5, 2.5 mM MgCl2, 37 °C
T2 construct: gene DICER1; isolated helicase domain, residues 1-624, N-terminal His6 tag (pMCSG7), expressed in E. coli BL21Star, Ni-Sepharose purified
T2 sequence (Q9UPY3 1-624): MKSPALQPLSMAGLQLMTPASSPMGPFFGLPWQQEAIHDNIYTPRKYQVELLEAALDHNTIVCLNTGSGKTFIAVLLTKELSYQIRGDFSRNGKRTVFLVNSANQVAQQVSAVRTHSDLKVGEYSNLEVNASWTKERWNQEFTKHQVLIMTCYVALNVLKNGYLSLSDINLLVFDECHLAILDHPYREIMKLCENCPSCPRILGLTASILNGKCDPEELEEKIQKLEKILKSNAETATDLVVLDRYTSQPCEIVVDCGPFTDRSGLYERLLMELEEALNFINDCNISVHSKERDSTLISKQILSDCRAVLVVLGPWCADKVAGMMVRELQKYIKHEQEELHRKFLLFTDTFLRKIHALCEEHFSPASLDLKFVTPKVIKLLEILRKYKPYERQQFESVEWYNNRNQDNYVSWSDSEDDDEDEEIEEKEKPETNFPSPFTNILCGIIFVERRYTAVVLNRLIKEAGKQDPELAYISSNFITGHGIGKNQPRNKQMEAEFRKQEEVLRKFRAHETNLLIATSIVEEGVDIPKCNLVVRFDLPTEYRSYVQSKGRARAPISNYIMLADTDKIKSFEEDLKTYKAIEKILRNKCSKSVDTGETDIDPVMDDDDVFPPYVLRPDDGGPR

[3] = target: T3, WT hDicer (Homo sapiens, UniProt Q9UPY3); assay: EMSA with radiolabelled ATP; type: binding
T3 construct: gene DICER1; full-length, 1922 aa, ~220 kDa; expressed in human 293T NoDice cells and purified; K70A variant from Addgene plasmid 41589

[4] = target: T4, HEL (hDicer helicase domain) (Homo sapiens, UniProt Q9UPY3 1-624); assay: EMSA; 37 C; 50 mM Tris-HCl pH 7.5, 150 mM NaCl; EMSA 15 min at room temperature (also 4 and 37 C), 5% native PAA gel in 1x TBE at 4 C; BLI 23 C; conditions: protein: recombinant; tags: N-terminal His6 (pMCSG7); label: 5' 32P; unstructured
T4 sequence: T2 sequence (Q9UPY3 1-624)

[5] = target: T4, HEL (hDicer helicase domain); assay: EMSA; up to 95 uM HEL; 50 mM Tris-HCl pH 7.5, 150 mM NaCl; EMSA 15 min at room temperature (also 4 and 37 C), 5% native PAA gel in 1x TBE at 4 C; BLI 23 C; conditions: protein: recombinant, tags: N-terminal His6 (pMCSG7)
[6] = target: T4, HEL (hDicer helicase domain); assay: EMSA; distinct complex; 50 mM Tris-HCl pH 7.5, 150 mM NaCl; EMSA 15 min at room temperature (also 4 and 37 C), 5% native PAA gel in 1x TBE at 4 C; BLI 23 C; conditions: protein: recombinant; tags: N-terminal His6 (pMCSG7); label: 5' 32P (EMSA); none (BLI)
[7] = target: T4, HEL (hDicer helicase domain); assay: SAXS; 1:1 complex; 50 mM Tris-HCl pH 7.5, 150 mM NaCl; EMSA 15 min at room temperature (also 4 and 37 C), 5% native PAA gel in 1x TBE at 4 C; BLI 23 C; conditions: protein: recombinant, tags: N-terminal His6 (pMCSG7), label: 5' 32P (EMSA), hairpin
[8] = target: T4, HEL (hDicer helicase domain); assay: BLI; 23 C, HEL immobilized; 50 mM Tris-HCl pH 7.5, 150 mM NaCl; EMSA 15 min at room temperature (also 4 and 37 C), 5% native PAA gel in 1x TBE at 4 C; BLI 23 C; conditions: protein: recombinant; tags: N-terminal His6 (pMCSG7); label: 5' 32P (EMSA); none (BLI)
[9] = target: T4, HEL (hDicer helicase domain); assay: EMSA; 50 mM Tris-HCl pH 7.5, 150 mM NaCl; EMSA 15 min at room temperature (also 4 and 37 C), 5% native PAA gel in 1x TBE at 4 C; BLI 23 C; conditions: protein: recombinant; tags: N-terminal His6 (pMCSG7); label: 5' 32P (EMSA); none (BLI)
[10] = target: T4, HEL (hDicer helicase domain); assay: EMSA; room temperature; 50 mM Tris-HCl pH 7.5, 150 mM NaCl; EMSA 15 min at room temperature (also 4 and 37 C), 5% native PAA gel in 1x TBE at 4 C; BLI 23 C; conditions: protein: recombinant; tags: N-terminal His6 (pMCSG7); label: 5' 32P; unstructured
[11] = target: T4, HEL (hDicer helicase domain); assay: CD thermal melting; HEL transitions shift to 52 and 74 C; RNA transition 75 to 60 C; 50 mM Tris-HCl pH 7.5, 150 mM NaCl; EMSA 15 min at room temperature (also 4 and 37 C), 5% native PAA gel in 1x TBE at 4 C; BLI 23 C; conditions: protein: recombinant; tags: N-terminal His6 (pMCSG7); label: 5' 32P (EMSA); none (BLI); partly self-paired (predicted)
[12] = label: 5' 32P on one strand, blunt
[13] = label: 5' 32P on one strand, 3' overhang 2 nt on each end

T1 sequence (Q9UPY3 whole entry K70A): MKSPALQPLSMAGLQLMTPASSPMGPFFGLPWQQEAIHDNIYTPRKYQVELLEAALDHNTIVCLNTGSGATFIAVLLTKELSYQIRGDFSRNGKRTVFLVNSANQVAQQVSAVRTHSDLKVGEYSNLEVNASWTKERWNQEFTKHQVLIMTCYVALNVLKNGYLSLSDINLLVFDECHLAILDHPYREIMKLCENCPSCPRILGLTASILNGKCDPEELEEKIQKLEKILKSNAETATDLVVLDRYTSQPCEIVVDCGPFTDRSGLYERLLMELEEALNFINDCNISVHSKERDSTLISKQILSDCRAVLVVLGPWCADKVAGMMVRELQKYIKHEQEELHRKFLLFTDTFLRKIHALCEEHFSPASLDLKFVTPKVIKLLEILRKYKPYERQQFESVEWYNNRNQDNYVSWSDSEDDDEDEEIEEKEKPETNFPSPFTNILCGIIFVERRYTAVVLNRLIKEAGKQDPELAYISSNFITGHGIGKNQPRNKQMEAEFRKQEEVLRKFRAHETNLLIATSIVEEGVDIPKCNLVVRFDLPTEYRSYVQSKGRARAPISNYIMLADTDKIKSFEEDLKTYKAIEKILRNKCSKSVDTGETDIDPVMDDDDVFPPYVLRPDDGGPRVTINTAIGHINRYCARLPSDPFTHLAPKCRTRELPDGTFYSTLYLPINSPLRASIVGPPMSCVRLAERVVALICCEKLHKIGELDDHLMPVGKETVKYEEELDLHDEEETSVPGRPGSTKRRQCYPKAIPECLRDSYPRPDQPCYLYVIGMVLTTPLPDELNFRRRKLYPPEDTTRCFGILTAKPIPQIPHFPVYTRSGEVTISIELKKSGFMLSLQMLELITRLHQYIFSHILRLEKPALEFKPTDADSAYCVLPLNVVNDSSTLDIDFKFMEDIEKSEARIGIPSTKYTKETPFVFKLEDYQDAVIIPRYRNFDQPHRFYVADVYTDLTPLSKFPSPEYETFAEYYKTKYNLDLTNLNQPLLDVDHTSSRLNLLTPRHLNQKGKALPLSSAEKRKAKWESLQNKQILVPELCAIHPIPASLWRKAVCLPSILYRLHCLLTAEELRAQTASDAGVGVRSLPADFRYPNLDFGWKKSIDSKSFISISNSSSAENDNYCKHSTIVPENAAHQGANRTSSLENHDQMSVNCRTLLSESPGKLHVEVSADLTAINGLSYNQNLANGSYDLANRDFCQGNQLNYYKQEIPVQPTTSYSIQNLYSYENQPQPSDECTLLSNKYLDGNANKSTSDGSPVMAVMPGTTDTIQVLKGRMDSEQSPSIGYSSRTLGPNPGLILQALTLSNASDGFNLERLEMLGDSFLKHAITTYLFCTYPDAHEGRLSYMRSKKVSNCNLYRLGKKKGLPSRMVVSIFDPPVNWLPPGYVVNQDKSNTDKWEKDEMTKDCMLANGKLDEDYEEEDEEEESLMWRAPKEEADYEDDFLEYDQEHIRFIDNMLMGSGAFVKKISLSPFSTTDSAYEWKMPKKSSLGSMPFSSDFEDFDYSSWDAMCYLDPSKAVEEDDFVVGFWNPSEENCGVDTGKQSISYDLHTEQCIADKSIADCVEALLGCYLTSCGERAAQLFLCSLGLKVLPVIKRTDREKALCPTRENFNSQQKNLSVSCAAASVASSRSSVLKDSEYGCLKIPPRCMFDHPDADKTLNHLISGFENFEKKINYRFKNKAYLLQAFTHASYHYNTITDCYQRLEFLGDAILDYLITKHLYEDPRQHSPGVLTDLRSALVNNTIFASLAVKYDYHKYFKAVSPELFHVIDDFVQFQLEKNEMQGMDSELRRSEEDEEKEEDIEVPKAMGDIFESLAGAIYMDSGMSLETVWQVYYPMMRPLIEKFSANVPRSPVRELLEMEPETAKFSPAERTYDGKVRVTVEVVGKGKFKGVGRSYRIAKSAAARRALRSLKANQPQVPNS

Question: How did the “EMSA with radiolabelled ATP” value [1] turn out when `Nc1ncnc2c1ncn2[C@@H]1O[C@H](COP(=O)(O)OP(=O)(O)OP(=O)(O)O)[C@@H](O)[C@H]1O` [ATP] was run?
Answer: Its value is “only weak ATP binding could be observed for hDicer_K70A”.

Question: And the “ATP hydrolysis, PAGE of released 32Pi” value [2]?
Answer: The value was “ATP was hydrolyzed in reactions carried out with HEL (Fig. 2a) and WT hDicer”.

Question: And the Kd [3]?
Answer: Its Kd is roughly 0.085 µM.

Question: Does CUCUCUCUCUCUCUCUCUCUCUCUCUCUCUCUCUCUCUCUCU (ssRNA) [(CU)21] bind [4]?
Answer: Result: binds

Question: Does GAAUCUUAACGC (ssRNA) [R12] bind ([5]; label: 5' 32P)?
Answer: Result: no binding

Question: Does GTGCATTGTAGTTGCATTGCATGTTCTGGTCA (ssDNA) [D32] bind [6]?
Answer: Result: binds

B1: dsDNA_blunt (dsDNA)
DNA 1: GTGCATTGTAGTTGCATTGCATGTTCTGGTCA
DNA 2: TGACCAGAACATGCAATGCAACTACAATGCAC
Question: Does B1 bind [5, 12]?
Answer: Result: no binding

B2: dsDNA_over (dsDNA)
DNA 1: B1 DNA 1
DNA 2: ACCAGAACATGCAATGCAACTACAATGCACAT
Question: Does B2 bind [5, 13]?
Answer: Result: no binding

B3: pre-mir-21 (structured_RNA)
RNA: AGCUUAUCAGACUGAUGUUGACUGUUGAAUCUCAUGGCAACACCAGUCGAUGGGCUGU
Question: Does B3 bind [7]?
Answer: Result: binds

B4: D56 (ssDNA)
DNA: GGGAGAATCATAAGTAGCGCAGTGAGTCGTTGTGCTGCCCATGTTAACAGTTAGCC
Question: B4 was tested. Which Kd [8] did it give?
Answer: The Kd was roughly 21 µM.

Question: And the Kd [9]?
Answer: Its Kd is roughly 7.4 µM.

B5: pre-mir-16-1 (structured_RNA)
RNA: UAGCAGCACGUAAAUAUUGGCGUUAAGAUUCUAAAAUUAUCUCCAGUAUUAACUGUGCUGCUGAA
Question: Does B5 bind ([7]; 9-nt apical loop)?
Answer: Result: binds

B6: R56 (ssRNA)
RNA: GGGAGAAUCAUAAGUAGCGCAGUGAGUCGUUGUGCUGCCCAUGUUAACAGUUAGCC
Question: How did the Kd [8] turn out when B6 was run?
Answer: The Kd was roughly 23 µM.

Question: For GGGAGAATCATAAGTAGCCTCCCCCCATGTTAACAGTTAGCC (ssDNA) [D42], which Kd [8] is on record?
Answer: The Kd was roughly 22 µM.

Question: And the Kd [9]?
Answer: Its Kd is roughly 8.5 µM.

B7: dsRNA_blunt (dsRNA)
RNA 1: GUGCAUUGUAGUUGCAUUGCAUGUUCUGGUCA
RNA 2: UGACCAGAACAUGCAAUGCAACUACAAUGCAC
Question: Does B7 bind [5, 12]?
Answer: Result: no binding

B8: dsRNA_over (dsRNA)
RNA 1: B7 RNA 1
RNA 2: ACCAGAACAUGCAAUGCAACUACAAUGCACAU
Question: Does B8 bind [5, 13]?
Answer: Result: no binding

Question: Does ACACACACACACACACACACACACACACACACACACACACAC (ssRNA) [(AC)21] bind [10]?
Answer: Result: binds

Question: Does GAATCTTAACGC (ssDNA) [D12] bind ([5]; label: 5' 32P)?
Answer: Result: no binding

Question: Does GGGAGAAUCAUAAGUAGCCUCCCCCCAUGUUAACAGUUAGCC (ssRNA) [R42] bind [11]?
Answer: Result: binds

— article PMC11658451, “The human Dicer helicase domain is capable of ATP hydrolysis and single-stranded nucleic acid binding” (BMC Biology, 2024)
